Sequences and labels used below:
B1: CCDC89 (parent)
chain: LNAELEEKMMQEAEKLKAQGEYSR
B2: EIF5 (parent)
chain: KQTIGNSCKACGYRGMLDTHHKLC
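Further: lentivirally expressed fusions sorted by FACS into six bins by GFP to DsRed ratio, PSI derived from sequencing read proportions per bin multiplied by bin number.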

In one series the parent is B1. The experiment in a line: protein stability index of a GFP-peptide fusion (GPS, HEK-293T) (PSI 1-6); higher = more stable. As to conditions: c terminus: a fixed tail appended.
On to LNAELEEKMMQIAEKLKAQGEYSR, for which the protein stability index amounted to 3.28. LNAELEEKMMQEAEKLKAQGEYSW: the protein stability index is 3.81. Same read-out and setting: for LNAELEEKMMQEAEKLKAQGEYSV the value was 5.64; for LNAELEEKMMMEAEKLKAQGEYSR, 4.18; for LNAELEEKMMGEAEKLKAQGEYSR, 5.18. Regarding FNAELEEKMMQEAEKLKAQGEYSR, the protein stability index stood at 5.18. The same measure, in the same setting: in the case of HNAELEEKMMQEAEKLKAQGEYSR it was 4.89. Same read-out and setting: in the case of DNAELEEKMMQEAEKLKAQGEYSR it was 5.54; in that of LNAELEEKRMQEAEKLKAQGEYSR, 5.12; in that of LNAELEEKFMQEAEKLKAQGEYSR, 4.97. With LNAEAEEKMMQEAEKLKAQGEYSR, the protein stability index was determined as 4.86. The same measure, in the same setting: in the case of LNAELEEKMMQEAEKLKAQGLYSR it was 4.16; in that of LNAELEEKMMQEAEKLKAQGWYSR, 3.76; in that of LNAELEEKMMQEAEKLKAQGTYSR, 4.19. Same read-out and setting: in the case of LNAELEEKMMQEAEKLKAQGKYSR it was 5.46; in that of LNAELEEKMMQEAEKLKAHGEYSR, 4.74.

Turning to LNAELEEKMAQEAEKLKAQGEYSR, the protein stability index amounted to 5.55.

Take LNAELEEKMYQEAEKLKAQGEYSR: the protein stability index worked out at 5.15. Same read-out and setting: in the case of LIAELEEKMMQEAEKLKAQGEYSR it was 4.79; in that of LNAELCEKMMQEAEKLKAQGEYSR, 4.69; in that of LNAYLEEKMMQEAEKLKAQGEYSR, 3.74.

Consider LNAKLEEKMMQEAEKLKAQGEYSR, for which the protein stability index was determined as 3.96.

For the variant LNASLEEKMMQEAEKLKAQGEYSR, the protein stability index is 5.16.

On to LNARLEEKMMQEAEKLKAQGEYSR, for which the protein stability index is 4.57. Regarding LNAELEEKMMQEAEKLKAQGEYQR, the protein stability index came out at 5.04.

On to LNAELEEKMMQEAEKLKAQGEYGR, for which the protein stability index stood at 5.13. Still for that read-out and setting: in the case of LNAELEEKMMQEIEKLKAQGEYSR it was 4.38; in that of LNAELEEKMMQEAEKCKAQGEYSR, 5.36; in that of LNAELEEKMMQEAEKEKAQGEYSR, 5.79. As for LNAELEEKMMQEAEKLIAQGEYSR, the protein stability index was found to be 4.72. The same measure, in the same setting: for LNAELEEKMMQEAEKLYAQGEYSR the value was 4.43. For LNAELEEKMMQEALKLKAQGEYSR, the protein stability index was determined as 4.5. Take LNAELEEKMMQEAIKLKAQGEYSR: the protein stability index was 4.27.

LNAELEIKMMQEAEKLKAQGEYSR: the protein stability index is 4.64.

Consider LNGELEEKMMQEAEKLKAQGEYSR, for which the protein stability index was 3.57. On the same count and under the same terms, for LNNELEEKMMQEAEKLKAQGEYSR the value was 3.89.

The variants in the next series derive from B2. The description is as above. As to conditions: c terminus: a fixed tail appended.
In the case of KQTIGNSRKACGYRGMLDTHHKLC, the protein stability index was determined as 1.69. On the same count and under the same terms, for KQTIGNSKKACGYRGMLDTHHKLC the value was 2.28; for KQTIGNSTKACGYRGMLDTHHKLC, 2.05; for KQTIGNSSKACGYRGMLDTHHKLC, 2.19. On the same count and under the same terms, for KQTIGNSNKACGYRGMLDTHHKLC the value was 2.78; for KQTIGNSMKACGYRGMLDTHHKLC, 1.86; for KQTIGNTCKACGYRGMLDTHHKLC, 3.29. On the same count and under the same terms, for KQTIGNMCKACGYRGMLDTHHKLC the value was 3.58; for KQTIGNNCKACGYRGMLDTHHKLC, 3.25. For KQTIGNGCKACGYRGMLDTHHKLC, the protein stability index is 3.5. Consider KQTIGNHCKACGYRGMLDTHHKLC, for which the protein stability index came out at 4.11. As to KQTIGNSCKACGYRGMLDTHHKIC, the protein stability index stood at 2.86. Still for that read-out and setting: for KQTIGNSCKACGYRGMLDTHHKEC the value was 4.2.

On to KQTIGNSCKACGYRGMLDTHHKQC, for which the protein stability index was determined as 3.82. On the same count and under the same terms, in the case of KQTIGNSCKACGYRGMLDTHHKNC it was 3.83; in that of KQTIGNSCKACGYRGMLDTHHKSC, 4.18; in that of KQTIGNSCKACGYRGMLDTHHKFC, 3.64.

KQTIGNSCKACGYRGMLDTHHKVC: the protein stability index amounted to 4.26. Same read-out and setting: for KQTIGNSCKACGYRGMLDHHHKLC the value was 3.43. Same read-out and setting: for KQTIGNSCKACGYRGMLDSHHKLC the value was 3.1. In the case of KQTIGNSCKACGYRGMLDVHHKLC, the protein stability index turned out to be 2.49. Turning to KQTIGNSCKACGYRGMLDLHHKLC, the protein stability index amounted to 2.29. Same read-out and setting: in the case of GQTIGNSCKACGYRGMLDTHHKLC it was 3.35; in that of NQTIGNSCKACGYRGMLDTHHKLC, 3.22. On the same count and under the same terms, in the case of FQTIGNSCKACGYRGMLDTHHKLC it was 2.55; in that of MQTIGNSCKACGYRGMLDTHHKLC, 2.36; in that of VQTIGNSCKACGYRGMLDTHHKLC, 2.95. For the variant WQTIGNSCKACGYRGMLDTHHKLC, the protein stability index stood at 3.05. On the same count and under the same terms, in the case of TQTIGNSCKACGYRGMLDTHHKLC it was 3.48; in that of KQTIGNSCKACGYRGMDDTHHKLC, 4.68. For the variant KQTIGNSCKACGYRGMSDTHHKLC, the protein stability index stood at 4.24.

As to KQTIGNSCKACGYRGMIDTHHKLC, the protein stability index came out at 3.33. Still for that read-out and setting: for KQTIGNSCKACGYRGMYDTHHKLC the value was 3.1; for KQTIGNSCKACGYRGMMDTHHKLC, 2.96. Same read-out and setting: in the case of KQTIGNSCKACGYRGMEDTHHKLC it was 3.98. For KQTIGNSCKACGYRGMGDTHHKLC, the protein stability index was determined as 3.77. KQTIGNSCKACGYRGMVDTHHKLC: the protein stability index amounted to 2.6.

On to KRTIGNSCKACGYRGMLDTHHKLC, for which the protein stability index was 2.56. Turning to KFTIGNSCKACGYRGMLDTHHKLC, the protein stability index came to 2.54. The same measure, in the same setting: in the case of KYTIGNSCKACGYRGMLDTHHKLC it was 2.19. For the variant KSTIGNSCKACGYRGMLDTHHKLC, the protein stability index was 3.05. On the same count and under the same terms, in the case of KQTYGNSCKACGYRGMLDTHHKLC it was 3.08; in that of KQTLGNSCKACGYRGMLDTHHKLC, 3.73. KQTSGNSCKACGYRGMLDTHHKLC: the protein stability index was found to be 3.75. As for KQTPGNSCKACGYRGMLDTHHKLC, the protein stability index was 3.44. With KQTWGNSCKACGYRGMLDTHHKLC, the protein stability index amounted to 2.82. Turning to KQTMGNSCKACGYRGMLDTHHKLC, the protein stability index is 3.63.

For KQDIGNSCKACGYRGMLDTHHKLC, the protein stability index was 4.01. Same read-out and setting: for KQSIGNSCKACGYRGMLDTHHKLC the value was 3.19; for KQAIGNSCKACGYRGMLDTHHKLC, 3.04; for KQIIGNSCKACGYRGMLDTHHKLC, 2.71.

As for KQMIGNSCKACGYRGMLDTHHKLC, the protein stability index was determined as 3.5. Turning to KQPIGNSCKACGYRGMLDTHHKLC, the protein stability index was found to be 3.66. The same measure, in the same setting: for KQQIGNSCKACGYRGMLDTHHKLC the value was 3.06; for KQTIGNSCKECGYRGMLDTHHKLC, 4.16. Still for that read-out and setting: for KQTIGNSCKPCGYRGMLDTHHKLC the value was 2.63; for KQTIGNSCKMCGYRGMLDTHHKLC, 3.12; for KQTIGNSCKTCGYRGMLDTHHKLC, 3.36.
